Laboratory results: patent publication US20240034792A1

Target: Human PD-1 expressed on CHO-K1 cells (CHO-K1/hPD-1) (human) (UniProt Q15116)
Assay: FACS, CHO-K1/hPD-1 cells

Chain of Human PD-1 expressed on CHO-K1 cells (CHO-K1/hPD-1) (human) (Q15116 25-288): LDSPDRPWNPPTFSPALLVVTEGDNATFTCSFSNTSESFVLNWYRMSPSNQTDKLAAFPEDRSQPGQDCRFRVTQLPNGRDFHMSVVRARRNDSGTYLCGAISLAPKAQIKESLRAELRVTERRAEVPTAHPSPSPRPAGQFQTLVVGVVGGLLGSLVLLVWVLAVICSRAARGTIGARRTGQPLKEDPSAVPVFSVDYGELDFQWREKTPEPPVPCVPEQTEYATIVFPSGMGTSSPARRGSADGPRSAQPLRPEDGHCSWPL

hIgG1 (antibody)
Maximum (MFI): 49300
